Results on one substance are retold here after publication PMC11940890.

Some targets named below: eFSHR-N268Q (equine) (UniProt P47799); eFSHR-N293Q (equine) (UniProt P47799); eFSHR-N199Q (equine) (UniProt P47799); eFSHR-N191Q (equine) (UniProt P47799).
Experiment [1] deals with equine follicle-stimulating hormone receptor wild type (eFSHR-wt) (equine) (UniProt P47799).
Sequence of equine follicle-stimulating hormone receptor wild type (eFSHR-wt) (equine) (P47799 18-694): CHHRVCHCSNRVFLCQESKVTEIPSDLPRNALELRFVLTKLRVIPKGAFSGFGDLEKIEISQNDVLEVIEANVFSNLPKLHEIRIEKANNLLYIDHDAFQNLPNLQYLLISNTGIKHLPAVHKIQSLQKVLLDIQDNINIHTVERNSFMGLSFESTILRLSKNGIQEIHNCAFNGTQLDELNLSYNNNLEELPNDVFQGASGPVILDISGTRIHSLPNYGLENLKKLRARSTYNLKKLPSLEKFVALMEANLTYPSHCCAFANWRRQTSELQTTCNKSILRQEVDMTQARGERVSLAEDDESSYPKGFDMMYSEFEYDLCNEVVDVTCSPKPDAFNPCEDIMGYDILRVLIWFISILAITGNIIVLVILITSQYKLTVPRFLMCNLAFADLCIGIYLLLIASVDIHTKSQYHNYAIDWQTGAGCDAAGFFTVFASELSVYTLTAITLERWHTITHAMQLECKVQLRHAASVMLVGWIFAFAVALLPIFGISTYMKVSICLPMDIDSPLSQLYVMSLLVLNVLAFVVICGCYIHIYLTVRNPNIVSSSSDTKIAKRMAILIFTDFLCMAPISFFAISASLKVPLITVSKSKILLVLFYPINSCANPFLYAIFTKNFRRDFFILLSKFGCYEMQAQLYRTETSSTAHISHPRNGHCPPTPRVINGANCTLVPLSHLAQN

Sequence of Human FSH (hFSH) (P01215 25-116): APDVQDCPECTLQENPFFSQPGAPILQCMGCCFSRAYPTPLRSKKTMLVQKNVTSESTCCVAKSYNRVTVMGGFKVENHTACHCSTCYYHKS
Sequence of Human FSH (hFSH) (P01225 19-129): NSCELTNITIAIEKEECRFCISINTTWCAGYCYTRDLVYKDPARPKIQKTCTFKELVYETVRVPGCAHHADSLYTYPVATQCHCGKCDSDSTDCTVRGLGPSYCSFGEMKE
Sequence of eFSHR-N268Q (equine) (P47799 18-694 N268Q): as the sequence (P47799 18-694) above, with N251Q counted along it
Sequence of eFSHR-N199Q (equine) (P47799 18-694 N199Q): as the sequence (P47799 18-694) above, with N182Q counted along it
Sequence of eFSHR-N293Q (equine) (P47799 18-694 N293Q): as the sequence (P47799 18-694) above, with N276Q counted along it
Sequence of eFSHR-N191Q (equine) (P47799 18-694 N191Q): as the sequence (P47799 18-694) above, with N174Q counted along it

As for “Human FSH (hFSH) (from UniProt P01215 25-116; P01225 19-129) (ligand)”, the EC50 of hFSH-stimulated cAMP response (HTRF cAMP assay), CHO-K1 cells expressing the receptor, 30 min at room temperature amounted to 0.806 µg/mL in the experiment with eFSHR-N268Q (equine); 1.24 µg/mL with eFSHR-N293Q (equine); 2.21 µg/mL with eFSHR-N199Q (equine); 0.99 µg/mL in experiment [1]; 2.11 µg/mL with eFSHR-N191Q (equine).
